This is an account of results in patent US20080227123A1.

For this assay, the target named is B cell antigen receptor (BCR; surface IgM) on DT40-ASF cells (chicken). As to the kind of experiment: cell-based or functional assay.

The substance “antibody M4 (mouse-derived anti-chicken IgM monoclonal antibody)” came in with a recovery of cell proliferation of doxycycline-treated DT40-ASF cells greater than 1 µg/mL.
